These are literature values, as cited in PMC8979592.

The data set concerns the target clathrin (UniProt Q00610).

Consider clathrin (from UniProt Q00610), for which the Kd (usually the free concentration of one partner at which half of the binding sites on the other are occupied at equilibrium, for simple one-to-one binding) was 120 µM.
